Key:
[1] = target: human OX40 expressed on the cell surface (human) (UniProt P43489); test: cell-based or functional assay
[2] = target: recombinant OX40-Fc protein (R & D, Cat 3388-OX) (human) (UniProt P43489); test: blocking ELISA: OX40-Fc coated, antibody titrated, competitor OX40L at 50 ng/ml
Sequence of recombinant OX40-Fc protein (R & D, Cat 3388-OX) (human) (P43489 29-214): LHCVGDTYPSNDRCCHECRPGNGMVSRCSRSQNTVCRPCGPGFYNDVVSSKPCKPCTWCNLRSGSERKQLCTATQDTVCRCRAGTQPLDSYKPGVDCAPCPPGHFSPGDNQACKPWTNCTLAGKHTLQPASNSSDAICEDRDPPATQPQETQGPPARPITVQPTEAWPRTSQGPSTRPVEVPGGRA

Sequence of human OX40 expressed on the cell surface (human) (P43489 29-277): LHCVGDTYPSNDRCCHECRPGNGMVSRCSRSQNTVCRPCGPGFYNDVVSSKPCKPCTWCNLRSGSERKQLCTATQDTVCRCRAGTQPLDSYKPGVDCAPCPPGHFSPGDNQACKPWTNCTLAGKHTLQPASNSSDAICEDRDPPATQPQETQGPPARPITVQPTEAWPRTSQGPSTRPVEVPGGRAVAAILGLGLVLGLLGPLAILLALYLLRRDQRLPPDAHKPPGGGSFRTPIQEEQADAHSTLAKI

B1: GBR830 (antibody, from another filing, V domains shown)
VH: QVTLKESGPALVKPTQTLTLTCSFSGFSLSTSGMGVGWIRQPPGKALEWIAHIWWDDDKYYNTALKTRLTISKDTSKNQVVLTMTNMDPVDTATYYCARIDWDGFAYWGQGTLVTVSS
VL: EIVLTQSPATLSLSPGERATLSCRASSSVSYMHWYQQKPGQAPRPWIYATSNRATGIPARFSGSGSGTDYTLTISSLEPEDFAVYYCQQWSSNPWTFGQGTKVEIKR
B1 gave a blocking of OX40L-mediated T cell activation, IFNγ secretion, IC50 [1] of 1.1 nM, an IC50 [2] of 0.3 nM and a maximum inhibition rate [2] of 50%.
